Results published in PMC10786891, “Massively parallel profiling of RNA-targeting CRISPR-Cas13d”.

Target: T1, EsCas13d, nuclease-dead (Eubacterium siraeum, UniProt B0MS50, R295A;H300A;R849A;H854A)
T1 sequence: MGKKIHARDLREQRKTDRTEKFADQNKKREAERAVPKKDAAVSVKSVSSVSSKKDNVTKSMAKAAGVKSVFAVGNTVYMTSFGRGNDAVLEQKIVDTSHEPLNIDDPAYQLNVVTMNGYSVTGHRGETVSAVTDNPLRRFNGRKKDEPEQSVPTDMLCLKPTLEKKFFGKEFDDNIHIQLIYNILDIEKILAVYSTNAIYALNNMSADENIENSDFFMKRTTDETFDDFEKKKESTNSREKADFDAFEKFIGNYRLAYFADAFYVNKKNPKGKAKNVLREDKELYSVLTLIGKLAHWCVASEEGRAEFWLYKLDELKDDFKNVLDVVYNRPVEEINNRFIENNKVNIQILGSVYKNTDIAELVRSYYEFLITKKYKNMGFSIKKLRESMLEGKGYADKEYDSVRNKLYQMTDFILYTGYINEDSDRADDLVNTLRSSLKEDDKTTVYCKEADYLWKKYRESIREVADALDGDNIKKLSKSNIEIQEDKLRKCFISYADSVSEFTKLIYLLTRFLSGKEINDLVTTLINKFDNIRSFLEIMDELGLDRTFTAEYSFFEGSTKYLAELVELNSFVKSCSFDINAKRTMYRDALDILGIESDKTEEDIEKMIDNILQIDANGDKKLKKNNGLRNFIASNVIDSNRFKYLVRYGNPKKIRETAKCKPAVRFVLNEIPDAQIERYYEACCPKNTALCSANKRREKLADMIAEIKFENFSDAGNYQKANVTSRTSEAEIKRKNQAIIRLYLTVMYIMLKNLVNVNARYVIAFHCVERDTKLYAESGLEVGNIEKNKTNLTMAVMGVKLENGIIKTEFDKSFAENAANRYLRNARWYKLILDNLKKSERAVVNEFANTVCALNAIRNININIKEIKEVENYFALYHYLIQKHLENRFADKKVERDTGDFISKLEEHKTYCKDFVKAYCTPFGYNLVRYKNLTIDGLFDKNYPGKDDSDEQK
Test: crRNA (strand 1, pre-loaded); Mg2+; 40 mM Tris-HCl pH 7.5, 150 mM NaCl, 6 mM MgCl2, 1 mM DTT, 0.1% Tween-20, 0.2 mg/ml BSA; 25 C; 10 min per concentration, then washed
Conditions: tags: His6-TwinStrep-SUMO cleaved; N-terminal SNAP kept (SNAP-Surface 488); label: 3' end held by stalled T7 RNA polymerase

Binder | Kd
target 1 insC 3' of 3,insG 3' of 3 (mixed) RNA 1: CACCCGUGCAAAAAUGCAGGGGUCUAAAACUGAGCGGAUAACCUCUCUAUGG RNA 2: GGGAAUGGAUCCACAUCUACGAAUUCGUACCAUAGAGAGGUUAUCCGCUCGCACCGAGAUCGGAAGAGCACACGU | 8.5 ± 0.6 nM
target 1 G13A (mixed) RNA 1: CACCCGUGCAAAAAUGCAGGGGUCUAAAACUGAGCGGAUAACCUCUCUAUGG RNA 2: GGGAAUGGAUCCACAUCUACGAAUUCGUACCAUAGAGAAGUUAUCCGCUCACCGAGAUCGGAAGAGCACACGU | 4.9 ± 0.4 nM
target 1 A1G,G13A (mixed) RNA 1: CACCCGUGCAAAAAUGCAGGGGUCUAAAACUGAGCGGAUAACCUCUCUAUGG RNA 2: GGGAAUGGAUCCACAUCUACGAAUUCGUACCAUAGAGAAGUUAUCCGCUCGCCGAGAUCGGAAGAGCACACGU | 6.2 ± 0.8 nM
target 2 MT 5'PFS AAU 3'PFS UUU (mixed) RNA 1: CACCCGUGCAAAAUUGCAGGGGUCUAAAACCUUCUCCAAAUUGUUUCAUCCU RNA 2: GGGAAUGGAUCCACAUCUACGAAUUCAAUAGGAUGAAACAAUUUGGAGAAGUUUAGAUCGGAAGAGCACACGU | 12.4 ± 2.5 nM
target 2 MT 5'PFS UCG 3'PFS AGG (mixed) RNA 1: CACCCGUGCAAAAUUGCAGGGGUCUAAAACCUUCUCCAAAUUGUUUCAUCCU RNA 2: GGGAAUGGAUCCACAUCUACGAAUUCUCGAGGAUGAAACAAUUUGGAGAAGAGGAGAUCGGAAGAGCACACGU | 35 ± 9 nM
target 2 MT 5'PFS GUA 3'PFS AAC (mixed) RNA 1: CACCCGUGCAAAAUUGCAGGGGUCUAAAACCUUCUCCAAAUUGUUUCAUCCU RNA 2: GGGAAUGGAUCCACAUCUACGAAUUCGUAAGGAUGAAACAAUUUGGAGAAGAACAGAUCGGAAGAGCACACGU | 6.2 ± 0.5 nM
target 2 MT 5'PFS GCC 3'PFS CGC (mixed) RNA 1: CACCCGUGCAAAAUUGCAGGGGUCUAAAACCUUCUCCAAAUUGUUUCAUCCU RNA 2: GGGAAUGGAUCCACAUCUACGAAUUCGCCAGGAUGAAACAAUUUGGAGAAGCGCAGAUCGGAAGAGCACACGU | 11.4 ± 1.6 nM
target 2 MT 5'PFS AUG 3'PFS UCA (mixed) RNA 1: CACCCGUGCAAAAUUGCAGGGGUCUAAAACCUUCUCCAAAUUGUUUCAUCCU RNA 2: GGGAAUGGAUCCACAUCUACGAAUUCAUGAGGAUGAAACAAUUUGGAGAAGUCAAGAUCGGAAGAGCACACGU | 15 ± 5 nM
target 2 MT 5'PFS GCC 3'PFS CGG (mixed) RNA 1: CACCCGUGCAAAAUUGCAGGGGUCUAAAACCUUCUCCAAAUUGUUUCAUCCU RNA 2: GGGAAUGGAUCCACAUCUACGAAUUCGCCAGGAUGAAACAAUUUGGAGAAGCGGAGAUCGGAAGAGCACACGU | 13.5 ± 2.2 nM
target 2 MT 5'PFS GCC 3'PFS AGA (mixed) RNA 1: CACCCGUGCAAAAUUGCAGGGGUCUAAAACCUUCUCCAAAUUGUUUCAUCCU RNA 2: GGGAAUGGAUCCACAUCUACGAAUUCGCCAGGAUGAAACAAUUUGGAGAAGAGAAGAUCGGAAGAGCACACGU | 10.5 ± 1.8 nM
target 2 MT 5'PFS GGA 3'PFS CUA (mixed) RNA 1: CACCCGUGCAAAAUUGCAGGGGUCUAAAACCUUCUCCAAAUUGUUUCAUCCU RNA 2: GGGAAUGGAUCCACAUCUACGAAUUCGGAAGGAUGAAACAAUUUGGAGAAGCUAAGAUCGGAAGAGCACACGU | 9.9 ± 1.3 nM
target 2 MT 5'PFS GCC 3'PFS AGG (mixed) RNA 1: CACCCGUGCAAAAUUGCAGGGGUCUAAAACCUUCUCCAAAUUGUUUCAUCCU RNA 2: GGGAAUGGAUCCACAUCUACGAAUUCGCCAGGAUGAAACAAUUUGGAGAAGAGGAGAUCGGAAGAGCACACGU | 16.4 ± 2.4 nM
target 2 MT 5'PFS UGA 3'PFS UCG (mixed) RNA 1: CACCCGUGCAAAAUUGCAGGGGUCUAAAACCUUCUCCAAAUUGUUUCAUCCU RNA 2: GGGAAUGGAUCCACAUCUACGAAUUCUGAAGGAUGAAACAAUUUGGAGAAGUCGAGAUCGGAAGAGCACACGU | 13 ± 1.7 nM
target 2 MT 5'PFS GCC 3'PFS AGC (mixed) RNA 1: CACCCGUGCAAAAUUGCAGGGGUCUAAAACCUUCUCCAAAUUGUUUCAUCCU RNA 2: GGGAAUGGAUCCACAUCUACGAAUUCGCCAGGAUGAAACAAUUUGGAGAAGAGCAGAUCGGAAGAGCACACGU | 10.5 ± 1.2 nM
target 2 MT 5'PFS UGA 3'PFS UCC (mixed) RNA 1: CACCCGUGCAAAAUUGCAGGGGUCUAAAACCUUCUCCAAAUUGUUUCAUCCU RNA 2: GGGAAUGGAUCCACAUCUACGAAUUCUGAAGGAUGAAACAAUUUGGAGAAGUCCAGAUCGGAAGAGCACACGU | ~49 nM
target 2 MT 5'PFS GGA 3'PFS CUU (mixed) RNA 1: CACCCGUGCAAAAUUGCAGGGGUCUAAAACCUUCUCCAAAUUGUUUCAUCCU RNA 2: GGGAAUGGAUCCACAUCUACGAAUUCGGAAGGAUGAAACAAUUUGGAGAAGCUUAGAUCGGAAGAGCACACGU | 10.5 ± 0.8 nM
target 2 MT 5'PFS UCU 3'PFS AGA (mixed) RNA 1: CACCCGUGCAAAAUUGCAGGGGUCUAAAACCUUCUCCAAAUUGUUUCAUCCU RNA 2: GGGAAUGGAUCCACAUCUACGAAUUCUCUAGGAUGAAACAAUUUGGAGAAGAGAAGAUCGGAAGAGCACACGU | 40 ± 18 nM
target 2 MT 5'PFS CCC 3'PFS CCU (mixed) RNA 1: CACCCGUGCAAAAUUGCAGGGGUCUAAAACCUUCUCCAAAUUGUUUCAUCCU RNA 2: GGGAAUGGAUCCACAUCUACGAAUUCCCCAGGAUGAAACAAUUUGGAGAAGCCUAGAUCGGAAGAGCACACGU | 7.6 ± 1.8 nM
target 2 MT 5'PFS GCC 3'PFS CGA (mixed) RNA 1: CACCCGUGCAAAAUUGCAGGGGUCUAAAACCUUCUCCAAAUUGUUUCAUCCU RNA 2: GGGAAUGGAUCCACAUCUACGAAUUCGCCAGGAUGAAACAAUUUGGAGAAGCGAAGAUCGGAAGAGCACACGU | 14 ± 3.3 nM
target 2 MT 5'PFS GGA 3'PFS CUG (mixed) RNA 1: CACCCGUGCAAAAUUGCAGGGGUCUAAAACCUUCUCCAAAUUGUUUCAUCCU RNA 2: GGGAAUGGAUCCACAUCUACGAAUUCGGAAGGAUGAAACAAUUUGGAGAAGCUGAGAUCGGAAGAGCACACGU | 9.2 ± 0.8 nM
target 2 MT 5'PFS AAA 3'PFS CUC (mixed) RNA 1: CACCCGUGCAAAAUUGCAGGGGUCUAAAACCUUCUCCAAAUUGUUUCAUCCU RNA 2: GGGAAUGGAUCCACAUCUACGAAUUCAAAAGGAUGAAACAAUUUGGAGAAGCUCAGAUCGGAAGAGCACACGU | 6.5 ± 1.2 nM
target 2 MT 5'PFS GGA 3'PFS CUC (mixed) RNA 1: CACCCGUGCAAAAUUGCAGGGGUCUAAAACCUUCUCCAAAUUGUUUCAUCCU RNA 2: GGGAAUGGAUCCACAUCUACGAAUUCGGAAGGAUGAAACAAUUUGGAGAAGCUCAGAUCGGAAGAGCACACGU | 13.4 ± 1.5 nM
target 2 MT 5'PFS CGC 3'PFS CAC (mixed) RNA 1: CACCCGUGCAAAAUUGCAGGGGUCUAAAACCUUCUCCAAAUUGUUUCAUCCU RNA 2: GGGAAUGGAUCCACAUCUACGAAUUCCGCAGGAUGAAACAAUUUGGAGAAGCACAGAUCGGAAGAGCACACGU | 5.1 ± 0.5 nM
target 2 MT 5'PFS CGC 3'PFS CAG (mixed) RNA 1: CACCCGUGCAAAAUUGCAGGGGUCUAAAACCUUCUCCAAAUUGUUUCAUCCU RNA 2: GGGAAUGGAUCCACAUCUACGAAUUCCGCAGGAUGAAACAAUUUGGAGAAGCAGAGAUCGGAAGAGCACACGU | 3.6 ± 0.6 nM
target 2 MT 5'PFS AGG 3'PFS CGC (mixed) RNA 1: CACCCGUGCAAAAUUGCAGGGGUCUAAAACCUUCUCCAAAUUGUUUCAUCCU RNA 2: GGGAAUGGAUCCACAUCUACGAAUUCAGGAGGAUGAAACAAUUUGGAGAAGCGCAGAUCGGAAGAGCACACGU | 4.7 ± 0.5 nM
target 2 MT 5'PFS GGU 3'PFS UCU (mixed) RNA 1: CACCCGUGCAAAAUUGCAGGGGUCUAAAACCUUCUCCAAAUUGUUUCAUCCU RNA 2: GGGAAUGGAUCCACAUCUACGAAUUCGGUAGGAUGAAACAAUUUGGAGAAGUCUAGAUCGGAAGAGCACACGU | 38 ± 7 nM
target 2 MT 5'PFS UGA 3'PFS UCA (mixed) RNA 1: CACCCGUGCAAAAUUGCAGGGGUCUAAAACCUUCUCCAAAUUGUUUCAUCCU RNA 2: GGGAAUGGAUCCACAUCUACGAAUUCUGAAGGAUGAAACAAUUUGGAGAAGUCAAGAUCGGAAGAGCACACGU | 14 ± 6 nM
target 2 MT 5'PFS AUG 3'PFS UCC (mixed) RNA 1: CACCCGUGCAAAAUUGCAGGGGUCUAAAACCUUCUCCAAAUUGUUUCAUCCU RNA 2: GGGAAUGGAUCCACAUCUACGAAUUCAUGAGGAUGAAACAAUUUGGAGAAGUCCAGAUCGGAAGAGCACACGU | 24.4 ± 2.8 nM
